This note sets out measurements from patent publication US20080207521A1, “PEPTIDE LIGAND TO IMPAIR CANCER CELL MIGRATION” (priority 2005, published 2008).

Ends that are not written are not given here. * marks the point of attachment. For = O=C*

Assay [1] has as its target T1, Frz-5 receptor (Homo sapiens, UniProt Q13467). Description: MDA-MB-468 cell migration with Frz-5 receptor blocking Ab or control anti-Frz-2 Ab. The class given is cell-based. More on the design: endogenous in cells; host or cells: MDA-MB-468. Conditions: Ab 5 μg/ml, 18 h. The method, then:
The peptide […], corresponding to amino acids 198-217 in the ectodomain of the human Frz-5 receptor was as previously described used to generate a Frz-5 receptor blocking Ab (13). The peptide […], corresponding to amino acids 202-220 in the ectodomain of the human Frz-2 receptor, was used to generate a control anti-Frz-2 Ab. The synthesis of the peptides (the italic letters indicate the Frz-5 and Frz-2 sequences, the cysteine was added for raising and purifying the Ab) and the production of rabbit anti-Frz-5 and anti-Frz-2 antisera were managed by AgriSera (Vännäs, Sweden; permit A69-04 from Ume(a) animal ethic committe). The antisera were affinity purified in the laboratory by coupling the respective peptide antigen to Sulfolink Sepharose over which the respective antisera was then eluted.
Cell migration analyses were performed in a modified Boyden chamber with a polycarbonate membrane (10 μm thick with a porous diameter of 8.0 μm) separating the two chambers (Transwell®; Costar, Cambridge, Mass.). As indicated in some experiments the membranes were coated with collagen by adding collagen-I (10 μg/ml) diluted in 0.25% acetic acid to the upper chamber for 1 h at 37° C., after which it was washed three times with PBS. […] After washing the membranes the number of stained cells per membrane and well was counted in an inverted microscope. […]

In assay [2] the test system is MDA-MB-468 cells. Description: Migration of MDA-MB-468 cells in modified Boyden chamber. Format: cell-based, human. Conditions: 18 h. The protocol: The HB2 mammary epithelial cell line, a subclone of the MTSV-1.7 cell line, originating from the laboratory of Dr. J. Taylor-Papadimitriou (11) was used. The HB2 cells were cultured in DMEM supplemented with 10% FBS, 5 U/mi penicillin, 0.5 U/ml streptomycin, 2 mM glutamine, 10 μg/ml bovine insulin and 5 μg/ml hydrocortisone. The human mammary carcinoma cell lines MCF-7 and MDA-MB-468 were cultured in DMEM supplemented with 10% FBS, 5 U/ml penicillin, 0.5 U/ml streptomycin and 2 mM glutamine. The pH-experiments were done in MEM supplemented with 10 mM Tris, 0.5% BSA, 5 U/ml penicillin, 0.5 U/ml streptomycin and 2 mM glutamine. The pH 7.4-medium was further supplemented with 4 mM sodium bicarbonate whereas the pH 6.7-medium was not. All cells were incubated at 37° C. in 95% air and 5% CO2.
(§1) Cell migration analyses were performed in a modified Boyden chamber with a polycarbonate membrane (10 μm thick with a porous diameter of 8.0 μm) separating the two chambers (Transwell®; Costar, Cambridge, Mass.). As indicated in some experiments the membranes were coated with collagen by adding collagen-I (10 μg/ml) diluted in 0.25% acetic acid to the upper chamber for 1 h at 37° C., after which it was washed three times with PBS. Each experiment was initiated by detaching the cells by Versene treatment for 10-20 min at 37° C., washed, and re-suspended as a single cell suspension in serum-free DMEM medium supplemented with 0.5% BSA. Together with the indicated agonist a 0.2 ml cell suspension (containing 25,000 MDA-MB-468 or 50,000 HB2 cells) was then added to the upper chamber of the transwell. The lower chamber was filled with 0.6 ml serum-free but BSA-containing DMEM medium supplemented with 1 ng/ml of the chemoattractant IGF-I. As a control, IGF-I was excluded in some wells in each separate experiment. The cells were allowed to migrate in the Boyden chamber for 18 h at 37° C. in a humidified atmosphere of 95% air and 5% CO2. The experiments were terminated by removing the non-migratory cells with a cotton-tipped applicator from the upper surface of the membranes. The remaining cells on the lower surface that had migrated through the membrane were stained for 20 min with 0.5% crystal violet diluted in 20% methanol/80% water. After washing the membranes the number of stained cells per membrane and well was counted in an inverted microscope. The value from each separate experiment represents the median value of three individual wells.
Peptide-induced effects on MDA-MB-468 tumour cell migration and their content of F-actin. (A) The cells were allowed to migrate for 18 h in the absence or presence of the indicated peptides (100 μM) The data in panel A are expressed as means±SEM of 8 separate experiments, each performed in triplicate. * p<0.05. (B) The cells were allowed to adhere to collagen I-coated cover glasses for 18h in the absence or presence of peptide 175 (100 μM). The cells were then stained with Alexa488-Phalloidin as described in the methods section. The illustrated micrographs are representative of 5 separate experiments.
(§2) Effects of peptide 175 modifications on its ability to induce MDA-MB-468 tumour cell adhesion and migration. (A) The cells were allowed to adhere for 60 min to collagen-I coated wells in the absence or presence of peptide 175, three stepwise N-terminal deletion variants of peptide 175 or a formylated version of the tested hexapeptide derived from peptide 175. The amounts of adhesive cells were analyzed as described in the methods and the results are given as means±SEM of 6 separate experiments. (B and C) The cells were allowed to migrate for 18 h in the absence or presence of 1 or 10 μM of peptide 175 (B) or the formylated hexapeptide (C). The data are given as means±SEM of 6 separate experiments, each performed in triplicate. * p<0.05, p<0.01.
Effects of Frz-5 receptor blocking and reduced pH on the abilities of the formylated hexapeptide and Wnt-5a to inhibit tumour cell migration. […]

Assay [3] relates to MDA-MB-468 cells. Description: Adhesion of MDA-MB-468 breast cancer cells to collagen I (MTS). Format: cell-based, human. Conditions: 60 min. The method, then: The adhesion assay was carried out as previously described (12). Briefly, cells were serum-depleted for 16 h, detached with Versene and allowed to adhere as single cells to collagen I for 60 (MDA-MB-468) or 90 min (HB2) at 37° C. Non-adherent cells were removed by washing with PBS. The adherent cells were incubated with a (3-(4,5-dimethylthiazol-2-yl)-5-(3-carboxymethoxyphenyl)-2-(-4-sulfophenyl)-2H-tetrazolium, inner salt (MTS) dye reduction assay (Promega, Madison, Wis.) and absorbance was measured at 490 nm using a Fluostar microplate reader from BMG LabTechnologies (GmbH, Offenberg, Germany). In each experiment a single value was calculated based on the mean of adhesion from six separate wells after the adhesion to plastic alone had been subtracted. The CM used as a control in the adhesion assays was obtained from confluent Wnt-5a overexpressing HB2 cells (for experiments with Wnt-5a antisense HB2 cells) or Wnt-5a overexpressing MCF-7 cells (for MDA-MB-468 cells) stably transfected with a vector over-expressing Wnt5a. A collected CM was always used within three days.
Peptide-induced effects on adhesion and DDR1 phosphorylation in MDA-MB-468 breast cancer cells. (A) Western blot analysis of Wnt-5a protein expression in Wnt-5a antisense and Wnt-5a over-expressing HB2 cells in comparison to MDA-MB-468 tumour cells. The blot is representative of 9 separate experiments. (B) Peptide-induced effects on MDA-MB-468 tumour cell adhesion. The cells were allowed to adhere to collagen type I-coated wells for 60 min in the absence or presence of 100 μM of the indicated peptides or CM. The amounts of adhesive cells were analyzed as described in the methods and the results are given as means±SEM of 8 separate experiments. (C) MDA-MB-468 cell adhesion to collagen I-coated wells in the absence or presence of peptide 175 or a peptide with same amino acid sequence except for a substitution of cysteine for alanine (175Ala) or CM. The amount of adherent cells was estimated as in panel A and expressed as means±SEM of 6 separate experiments, ns=not significant, ** p<0.01 and *** p<0.001. (D) Single MDA-MB-468 cells were allowed to adhere to collagen I-coated plates for 60 min in the absence or presence of the indicated peptides (100 μM), CM or recombinant Wnt-5a (0.8 µg/ml). DDR1 immunoprecipitates were Western blotted with first an anti-phosphotyrosine Ab and then after stripping with an anti-DDR1 Ab. The blots shown are representative of 6 separate experiments.
as §2

The target of assay [4] is T1, Frz-5 receptor. Description: cell-based or functional assay.
Assay [5] concerns Wnt-5a antisense HB2 cells. Description: Migration of Wnt-5a antisense HB2 cells in modified Boyden chamber. Format: cell-based, human. The note with it: recombinant Wnt-5a 0.4 μg/ml; 18 h. The protocol: as §1
Effects of the selected and pure peptides on the ability of Wnt-5a antisense HB2 cells to adhere and migrate. (A-E) The ability of the cells to adhere to collagen type I-coated wells was analyzed as previously described for FIG. 2 in the absence or presence of different concentrations of the indicated peptide. (F) Effect of the indicated peptides on migration of Wnt-5a antisense HB2 in a transwell migration assay. The cells were allowed to migrate for 18 h in the absence or presence of 100 μM peptide or 0.4 μg/ml of recombinant Wnt5a. The data are given as means±SEM of 6-7 separate experiments, each performed in triplicate. * p<0.05 and ** p<0.01.

The subject of the next assay is DDR1. Description: DDR1 phosphorylation in MDA-MB-468 cells (immunoprecipitation/Western blot). Format: cell-based, human. The note with it: recombinant Wnt-5a 0.8 μg/ml; 60 min on collagen I. The protocol:
The phosphorylation status of DDR1 was analyzed as previously described (12), with the following modifications. After serum-depletion for 16 h, the cells were detached with Versene and then allowed to adhere to collagen I for 60 (MDA-MB-468) or 90 min (HB2) at 37° C. The experiments were terminated by lysing both adherent and non-adherent cells with a lysis buffer (50 mM Tris pH 7.4, 1% Triton-X, 5 mM EDTA, 5 mM EGTA, 50 mM NaCl, 10 μg/ml aprotinin, 2.5 mM benzamidine, 1 mM pefabloc, 1 μg/ml leupeptin and 1 mM Na3VO4). For immunoblotting an anti-DDR1 rabbit polyclonal Ab, sc-532 (Santa Cruz Biotech, Santa Cruz, Calif.) was used at a dilution of 1:10,000. The Ab recognizes DDR1b/c, which is essential because collagen only induces phosphorylation of the b or c isoforms of DDR1 in mammary epithelial cells (10).
Peptide-induced effects on adhesion and DDR1 phosphorylation in MDA-MB-468 breast cancer cells. (A) Western blot analysis of Wnt-5a protein expression in Wnt-5a antisense and Wnt-5a over-expressing HB2 cells in comparison to MDA-MB-468 tumour cells. […] The amounts of adhesive cells were analyzed as described in the methods and the results are given as means±SEM of 8 separate experiments. […] The amount of adherent cells was estimated as in panel A and expressed as means±SEM of 6 separate experiments, ns=not significant, ** p<0.01 and *** p<0.001. […]

T1 sequence (Q13467 27-585): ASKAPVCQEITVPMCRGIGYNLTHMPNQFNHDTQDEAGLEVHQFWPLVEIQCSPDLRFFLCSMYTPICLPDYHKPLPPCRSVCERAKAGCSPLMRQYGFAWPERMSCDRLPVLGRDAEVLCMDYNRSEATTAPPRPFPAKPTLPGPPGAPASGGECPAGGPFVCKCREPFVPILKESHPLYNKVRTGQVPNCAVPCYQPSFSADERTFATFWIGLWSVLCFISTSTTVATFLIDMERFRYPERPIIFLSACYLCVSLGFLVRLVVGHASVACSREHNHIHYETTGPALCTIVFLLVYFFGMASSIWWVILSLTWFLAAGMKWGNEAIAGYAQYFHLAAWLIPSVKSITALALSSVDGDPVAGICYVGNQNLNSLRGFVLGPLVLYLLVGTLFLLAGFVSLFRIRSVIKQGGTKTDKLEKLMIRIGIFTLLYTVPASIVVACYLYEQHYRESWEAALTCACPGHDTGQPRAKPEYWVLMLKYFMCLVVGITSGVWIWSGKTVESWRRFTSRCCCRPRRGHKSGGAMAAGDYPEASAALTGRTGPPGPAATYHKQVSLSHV

As to “formyl-Met-Asp-Gly-Cys-Glu-Leu (For-MDGCEL) [formylated hexapeptide]”, the “effect on migration in presence of anti-Frz-5 or anti-Frz-2 Ab” value in the assay with Frz-5 receptor [1] (formylated hexapeptide 100 μM) is recorded as “mediated via the Frz-5 receptor”. For the same molecule, in the assay with MDA-MB-468 cells [2] (10 μM), the “inhibition of migration at pH 6.7 versus pH 7.4” value was “as effective in inhibiting MDA-MB-468 cell migration at pH 6.7 as at pH 7.4” and the “motility (migration)” value was “significantly impaired the motility”. The “minimal concentration that had a significant effect on migration” value in the assay on MDA-MB-468 cells [2] amounted to 10 µM. For the same molecule, in the assay on MDA-MB-468 cells [3], the “adhesion to collagen I, N-terminal deletion variants and formylation of peptide 175” value was “restored, and possibly even potentiated its effect on adhesion”.
In the case of formylated tripeptide fMet-Leu-Phe, the MDA-MB-468 cell adhesion to collagen I with Frz-5 receptor [4] stood at 15.7.

B1: recombinant Wnt-5a: recombinant mouse Wnt-5a (R&D Systems) (protein)
chain: IIGAQPLCSQLAGLSQGQKKLCHLYQDHMQYIGEGAKTGIKECQYQFRHRRWNCSTVDNTSVFGRVMQIGSRETAFTYAVSAAGVVNAMSRACREGELSTCGCSRAARPKDLPRDWLWGGCGDNIDYGYRFAKEFVDARERERIHAKGSYESARILMNLHNNEAGRRTVYNLADVACKCHGVSGSCSLKTCWLQLADFRKVGDALKEKYDSAAAMRLNSRGKLVQVNSRFNSPTTQDLVYIDPSPDYCVRNESTGSLGTQGRLCNKTSEGMDGCELMCCGRGYDQFKTVQTERCHCKFHWCCYVKCKKCTEIVDQFVCK
modifications: left off: small tags and cut ends
With B1, the “decrease in migration in presence of anti-Frz-5 or anti-Frz-2 Ab” value with Frz-5 receptor [1] (recombinant Wnt-5a 0.4 μg/ml) is recorded as “mediated via the Frz-5 receptor”. In addition, the migration result in assay [5] is “effectively decreased the migration”. Also, in the assay on DDR1, the “level of DDR1 phosphorylation” value is on record as “neither the pure peptides, CM nor recombinant Wnt-5a were able to further increase”.
